From patent US20160199445A1, “USE OF ARPIN A NEW INHIBITOR OF THE ARP2/3 COMPLEX FOR THE DIAGNOSIS AND TREATMENT OF DISEASES” (CENTRE NATIONAL DE LA RECHERCHE SCIENTIFIQUE, priority 2013, published 2016)

Tests used:
Purified Arp2/3 complex [1] = test: fluorescence anisotropy; labelled ArpinA peptide bound to purified Arp2/3 titrated with purified Arpin FL
Purified Arp2/3 complex [2] = test: fluorescence anisotropy, competition with labelled ArpinA bound to purified Arp2/3 complex

- Kd (Purified Arp2/3 complex [1]): 0.2 µM
- IC50 (read off the curve) (Purified Arp2/3 complex [2]): 0.3 µM
- Kd (Purified Arp2/3 complex [2]): 0.205 µM
Substance: Human full length Arpin (residues 1-226), purified from E. coli, cleaved off GST by TEV protease (from UniProt Q7Z6K5 1-226)
